The target in the assay is Flk1 (UniProt P35918).
Sequence of UniProt P35918 (P35918 20-1345): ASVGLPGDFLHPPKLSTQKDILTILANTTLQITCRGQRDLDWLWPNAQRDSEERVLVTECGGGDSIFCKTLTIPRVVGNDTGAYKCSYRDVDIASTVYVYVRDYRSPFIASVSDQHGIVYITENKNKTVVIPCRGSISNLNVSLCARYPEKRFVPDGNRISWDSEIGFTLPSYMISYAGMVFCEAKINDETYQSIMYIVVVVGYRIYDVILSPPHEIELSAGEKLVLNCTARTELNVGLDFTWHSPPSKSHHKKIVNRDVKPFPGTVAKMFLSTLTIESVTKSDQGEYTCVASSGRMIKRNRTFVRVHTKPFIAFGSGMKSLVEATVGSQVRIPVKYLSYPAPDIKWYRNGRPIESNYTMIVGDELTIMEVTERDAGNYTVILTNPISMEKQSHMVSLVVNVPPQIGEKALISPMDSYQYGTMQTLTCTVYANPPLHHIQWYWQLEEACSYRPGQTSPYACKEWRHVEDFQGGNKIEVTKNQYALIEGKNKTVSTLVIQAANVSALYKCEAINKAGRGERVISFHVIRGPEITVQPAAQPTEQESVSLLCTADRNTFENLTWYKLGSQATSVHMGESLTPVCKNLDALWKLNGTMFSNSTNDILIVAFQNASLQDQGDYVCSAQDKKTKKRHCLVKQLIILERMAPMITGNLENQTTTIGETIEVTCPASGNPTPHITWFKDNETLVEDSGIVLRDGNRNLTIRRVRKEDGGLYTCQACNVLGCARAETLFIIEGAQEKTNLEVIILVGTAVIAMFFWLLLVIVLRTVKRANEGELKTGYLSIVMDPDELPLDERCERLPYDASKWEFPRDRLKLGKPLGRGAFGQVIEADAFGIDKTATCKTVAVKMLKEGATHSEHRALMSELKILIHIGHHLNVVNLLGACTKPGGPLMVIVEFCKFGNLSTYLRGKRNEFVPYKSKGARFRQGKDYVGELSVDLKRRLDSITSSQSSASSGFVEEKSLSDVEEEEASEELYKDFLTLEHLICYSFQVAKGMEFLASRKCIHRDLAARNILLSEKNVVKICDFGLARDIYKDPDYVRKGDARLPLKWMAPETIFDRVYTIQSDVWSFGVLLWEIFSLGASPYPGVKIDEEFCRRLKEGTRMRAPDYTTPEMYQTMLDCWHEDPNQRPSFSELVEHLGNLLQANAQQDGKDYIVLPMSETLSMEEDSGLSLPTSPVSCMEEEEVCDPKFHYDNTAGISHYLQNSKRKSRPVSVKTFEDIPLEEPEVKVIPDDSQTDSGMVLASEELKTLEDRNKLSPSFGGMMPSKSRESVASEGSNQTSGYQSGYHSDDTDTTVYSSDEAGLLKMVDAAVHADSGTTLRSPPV

Consider VEGF 165 (ligand), for which the 3.9 kb Etv2 luciferase reporter (standardized to Renilla) in 293T cells cotransfected with the Flk1 expression vector, VEGF 50 ng/ml for 2, 6 or 18 hours came to 15 fold.

(Values after article PMC3501484.)
